In patent US20140193915, “COMPOSITIONS AND METHODS FOR CUSTOM SITE-SPECIFIC DNA RECOMBINASES” (Monsanto Technology, LLC, published 2014):

T1: sN-TALER V.2 (synthetic)
T1 chain: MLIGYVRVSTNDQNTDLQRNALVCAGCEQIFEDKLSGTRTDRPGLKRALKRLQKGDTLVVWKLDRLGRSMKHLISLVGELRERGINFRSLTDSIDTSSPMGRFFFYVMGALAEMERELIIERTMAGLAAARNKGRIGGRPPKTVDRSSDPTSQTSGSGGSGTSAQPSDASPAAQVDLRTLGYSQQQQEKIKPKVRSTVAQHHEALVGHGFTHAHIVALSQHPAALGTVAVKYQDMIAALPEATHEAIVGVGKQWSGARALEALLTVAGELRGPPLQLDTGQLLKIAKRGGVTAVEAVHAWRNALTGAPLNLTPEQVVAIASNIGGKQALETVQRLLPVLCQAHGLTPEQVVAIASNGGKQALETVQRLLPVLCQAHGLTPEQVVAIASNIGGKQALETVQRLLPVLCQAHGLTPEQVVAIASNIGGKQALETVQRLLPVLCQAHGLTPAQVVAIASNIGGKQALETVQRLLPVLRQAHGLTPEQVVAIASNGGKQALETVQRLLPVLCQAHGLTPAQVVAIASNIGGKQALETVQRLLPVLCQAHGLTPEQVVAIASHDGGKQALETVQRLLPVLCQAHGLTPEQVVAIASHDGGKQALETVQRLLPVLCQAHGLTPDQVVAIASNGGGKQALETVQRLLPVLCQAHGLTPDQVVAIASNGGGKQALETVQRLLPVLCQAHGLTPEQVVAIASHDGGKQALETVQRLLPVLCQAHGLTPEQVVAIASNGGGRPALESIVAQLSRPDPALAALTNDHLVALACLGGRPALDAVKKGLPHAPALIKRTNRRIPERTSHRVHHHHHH

T2: sN-TALER IV-4 (synthetic)
T2 chain: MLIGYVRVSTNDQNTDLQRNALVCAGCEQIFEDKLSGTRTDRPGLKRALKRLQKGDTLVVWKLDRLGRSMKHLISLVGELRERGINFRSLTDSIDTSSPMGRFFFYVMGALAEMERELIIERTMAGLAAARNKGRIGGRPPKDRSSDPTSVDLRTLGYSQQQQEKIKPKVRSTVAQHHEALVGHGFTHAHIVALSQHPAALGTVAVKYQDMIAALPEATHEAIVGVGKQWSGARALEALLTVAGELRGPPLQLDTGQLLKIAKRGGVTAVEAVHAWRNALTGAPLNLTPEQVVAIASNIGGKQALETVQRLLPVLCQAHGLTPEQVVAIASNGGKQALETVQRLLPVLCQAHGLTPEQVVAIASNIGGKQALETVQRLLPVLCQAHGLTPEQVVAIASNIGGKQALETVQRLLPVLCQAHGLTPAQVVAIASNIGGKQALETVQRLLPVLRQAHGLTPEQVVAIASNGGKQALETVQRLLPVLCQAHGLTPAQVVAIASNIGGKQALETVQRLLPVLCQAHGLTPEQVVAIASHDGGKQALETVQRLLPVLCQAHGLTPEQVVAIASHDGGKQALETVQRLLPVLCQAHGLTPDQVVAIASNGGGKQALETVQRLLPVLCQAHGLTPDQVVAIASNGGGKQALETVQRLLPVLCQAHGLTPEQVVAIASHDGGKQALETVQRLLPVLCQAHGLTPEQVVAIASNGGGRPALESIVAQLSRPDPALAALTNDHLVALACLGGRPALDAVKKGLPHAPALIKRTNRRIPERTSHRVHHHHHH


Experiments:
sN-TALER V.2 = biological target: T1, sN-TALER V.2; experiment: cell_activity; E. coli
Method: The co-transformed bacteria were plated on media with chloramphenicol, kanamycin, and X-gal then incubated at 37° C. for 18 to 36 hours. Control samples consisted of transformations using the reporter construct alone. Control transformants were similarly plated. The bacterial transformation protocol was either heat shock or electroporation per standard molecular biology techniques.
For each of these N-TALER chimera expression constructs, from one to three independent clones were selected for plasmid purification. These N-TALER chimera expression constructs were co-transformed with five of the N-TALER reporter constructs, as indicated in Table 15. […] In contrast to the result for pN-TALER N4.2.2, the chimera sN-TALER N4.2.2, with the same truncation point but a specific recombinase catalytic domain, reporters with 20, 24, or 40 bp of TALER central sequence length were efficiently recombined (score of 1) while reporters with 30 or 50 bp of TALER central sequence length were not recombined (score of 5). For the chimera sN-TALER N4.2, reporters with 20, 24, or 40 bp of TALER central sequence length were efficiently recombined (score of 1); the reporter with 30 bp of TALER central sequence length was poorly recombined (score of 3); and the reporter with 50 bp of TALER central sequence length was not recombined (score of 5). For the chimera pN-TALER N4.2, the recombination efficiency on the reporters tested varied from intermediate (scores of 3 and 4) to none (score of 5). […] In contrast to the result for sN-TALER N3.2, the chimera pN-TALER N3.2, with the same truncation point but a permissive recombinase catalytic domain, recombination efficiency on the reporters tested varied from efficient (scores of 1.5, 2, and 3) to none (score of 5). For both chimeras sN-TALER V.2 and pN-TALER V.2, there was efficient recombination (scores of 1, 1.5, and 2) of the 5 N-TALER reporter constructs tested.

sN-TALER IV-4 = biological target: T2, sN-TALER IV-4; experiment: cell_activity; E. coli; conditions: tags: 6-His
Procedure, shortened: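 DH5alpha cells co-transformed (heat shock or electroporation) with N-TALER expression and reporter plasmids at ~1:1 mass ratio; reporter alone as control. Plated on chloramphenicol/kanamycin/X-gal, grown 37° C. for 18 to 36 hours; recombination scored by colony colour.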

Binder | activity (sN-TALER V.2) [score] | activity (sN-TALER IV-4) [score]
Gin18TALE+1 (dsDNA) DNA 1: AGAAGGTATTTATATCCAAAACCATGGTTTACAATATAAATACCTTCT DNA 2: AGAAGGTATTTATATTGTAAACCATGGTTTTGGATATAAATACCTTCT | 1 | –
Gin20TALE+0 (dsDNA) DNA 1: AGAAGGTATTTATATCCAAAACCATGGTTTACAGTATAAATACCTTCT DNA 2: AGAAGGTATTTATACTGTAAACCATGGTTTTGGATATAAATACCTTCT | – | 1
Gin18TALE+0 (dsDNA) DNA 1: AGAAGGTATTTATACCAAAACCATGGTTTACATATAAATACCTTCT DNA 2: AGAAGGTATTTATATGTAAACCATGGTTTTGGTATAAATACCTTCT | – | 4
